Patent publication US20100159529, “DRY COMPOSITION OF REACTION COMPOUNDS WITH STABILIZED POLMERASE” (published 2010)

What was measured:
Taq DNA polymerase [1] = target: T1, Taq DNA polymerase (UniProt P19821 P19821:1-832); assay: cell_free PCR activity after drying, other; indirect functional evidence: aptamer (0.65 pmol/U Taq) preserves qPCR activity after drying with primers/probes and 1 week at 37 C; Wsebi casein Cp 24.0 vs no; conditions: tags: glycerol free; Roche AptaTaq when complexed with aptamer
T1 sequence (P19821 whole entry, one chain of several): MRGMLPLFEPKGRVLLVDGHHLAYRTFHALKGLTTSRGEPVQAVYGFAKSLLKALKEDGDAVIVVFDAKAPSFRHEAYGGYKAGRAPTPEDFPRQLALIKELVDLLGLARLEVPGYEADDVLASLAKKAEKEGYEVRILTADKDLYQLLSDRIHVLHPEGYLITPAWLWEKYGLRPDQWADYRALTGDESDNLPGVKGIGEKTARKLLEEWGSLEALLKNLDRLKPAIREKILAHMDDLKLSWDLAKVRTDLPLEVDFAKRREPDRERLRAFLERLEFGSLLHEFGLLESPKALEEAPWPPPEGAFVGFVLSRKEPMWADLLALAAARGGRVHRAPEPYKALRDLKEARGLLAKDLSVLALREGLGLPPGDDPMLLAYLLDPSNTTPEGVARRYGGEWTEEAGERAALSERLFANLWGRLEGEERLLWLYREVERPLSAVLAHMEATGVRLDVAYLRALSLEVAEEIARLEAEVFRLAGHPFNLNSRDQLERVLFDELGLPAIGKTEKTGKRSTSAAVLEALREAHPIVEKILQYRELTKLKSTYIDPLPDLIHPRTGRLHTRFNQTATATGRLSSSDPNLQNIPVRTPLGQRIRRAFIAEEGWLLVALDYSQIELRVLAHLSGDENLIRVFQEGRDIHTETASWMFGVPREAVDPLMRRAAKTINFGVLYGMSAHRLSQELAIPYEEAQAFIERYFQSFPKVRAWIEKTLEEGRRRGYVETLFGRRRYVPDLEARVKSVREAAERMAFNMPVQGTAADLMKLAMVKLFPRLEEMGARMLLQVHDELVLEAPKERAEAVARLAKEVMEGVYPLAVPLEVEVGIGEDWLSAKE
Experimental: The PCR performance of the polymerase after storage and re-solubilization was analyzed with and without detection mix (with or without primers and probes) using two different parameters. The liquid mixtures were dried 16 hours at 200 mbar and stored for 1 week at 37° C. prior to re-solubilization. As a control a liquid mixture without drying was used, too (called liquid reference in the following).
All mixtures were provided within wells of a 384 microtiter plate (Roche Diagnostic GmbH) and after the re-solubilization a PCR run was performed on the LightCycler®480 (Roche Diagnostic GmbH) using the following run protocol: [0123] 5 minutes 95° C. [0124] 10 seconds 95° C., 30 seconds 60° C., 1 second 72° C. (45×) [0125] 10 seconds 40° C.

Taq DNA polymerase [2] = target: T1, Taq DNA polymerase; assay: indirect functional evidence: 0.5 uM aptamer with 0.8 U/ul Taq preserves qPCR activity after drying with primers/probes and 1 week at 37 C; Wsebi Cp 24.8 vs liquid reference 24.7; 60 mM Tris pH 8.3, 60 mM KCl, 6.4 mM MgCl2; binding not measured directly; conditions: tags: glycerol free; Roche AptaTaq when complexed with aptamer
Experimental: The PCR performance of the polymerase with both aptamers were analyzed with detection mix (with primers and probes) after storage and re-solubilization using two different parameters. The liquid mixtures were dried 16 hours at 200 mbar and stored for 1 week at 37° C. prior to re-solubilization. As a control a liquid mixture without drying was used, too (called liquid reference in the following).

| Binder | binding result (Taq DNA polymerase [1]) | binding result (Taq DNA polymerase [2]) |
| --- | --- | --- |
| CGATCATCTCAGAACATTCTTAGCGTTTTGTTCTTGTGTATGATCG (ssDNA) [NTQ12-46A] | binds | – |
| GATCATCTCAGAACATTCTTAGCGTTTTGTTCTTGTGTATGA (ssDNA) [21-42-P (also printed 21-41-P)] | – | binds |
